Experimental data from article PMC6256979, “Screening and Improvement of an Anti-VEGF DNA Aptamer”.

How the values were obtained:
VEGF-A121 = VEGF-A121 (Homo sapiens (Human), UniProt P15692 27-147, none (E. coli)); assay: SPR; TBSE 10 mM Tris-HCl pH 7.0, 100 mM NaCl, 0.05 mM EDTA (folded with 50 mM KCl in Fig 3), 24 C; VEGF on CM5; settings: chain copies: 2
VEGF-A165 = VEGF-A165 (Homo sapiens (Human), UniProt P15692 27-191, N-glycosylated (Sf21)); assay: as above; settings: chain copies: 2
Chain of VEGF-A165 (P15692 other isoform, or with tags, fused parts or gaps): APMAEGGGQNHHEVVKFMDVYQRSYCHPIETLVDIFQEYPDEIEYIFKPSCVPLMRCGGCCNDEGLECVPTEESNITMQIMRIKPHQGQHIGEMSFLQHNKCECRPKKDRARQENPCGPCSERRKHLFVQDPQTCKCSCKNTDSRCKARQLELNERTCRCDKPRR

Chain of VEGF-A121 (P15692 other isoform, or with tags, fused parts or gaps): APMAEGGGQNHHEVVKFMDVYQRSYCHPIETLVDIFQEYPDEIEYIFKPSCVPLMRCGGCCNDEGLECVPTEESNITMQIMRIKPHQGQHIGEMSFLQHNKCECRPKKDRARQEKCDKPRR

## TGTGGGGGTGGACGGGCCGGGTAGA (ssDNA, G-quadruplex) [V7t1]
VEGF-A121
  Kd: 1.1 nM

B1: Vap7 (ssDNA)
DNA: ATACCAGTCTATTCAATTGCACTCTGTGGGGGTGGACGGGCCGGGTAGATAGTATGTGCAATCA
modifications: G-quadruplex
VEGF-A165
  Kd: 20 nM
VEGF-A121
  Kd: 1 nM
